In article PMC4187731, “WWP2-WWP1 Ubiquitin Ligase Complex Coordinated by PPM1G Maintains the Balance between Cellular p73 and ΔNp73 Levels” (Molecular and Cellular Biology, 2014):
Each block holds one binder with its values, some of them ahead of it.

Biological target: T1, MBP-WWP2 (UniProt O00308 1-870)
T1 construct: WWP2; also called bacterially purified WWP2; source: bacterially expressed; bacterially purified (methods, results) or bacterial cell lysate
Experiment: pull-down; GST, GST-p73 or GST-ΔNp73 on glutathione-Sepharose beads incubated with MBP-WWP2 for 1 h at 4°C; immunoblot with MBP antibody
Settings: both partners purified

T1 sequence (O00308 whole entry): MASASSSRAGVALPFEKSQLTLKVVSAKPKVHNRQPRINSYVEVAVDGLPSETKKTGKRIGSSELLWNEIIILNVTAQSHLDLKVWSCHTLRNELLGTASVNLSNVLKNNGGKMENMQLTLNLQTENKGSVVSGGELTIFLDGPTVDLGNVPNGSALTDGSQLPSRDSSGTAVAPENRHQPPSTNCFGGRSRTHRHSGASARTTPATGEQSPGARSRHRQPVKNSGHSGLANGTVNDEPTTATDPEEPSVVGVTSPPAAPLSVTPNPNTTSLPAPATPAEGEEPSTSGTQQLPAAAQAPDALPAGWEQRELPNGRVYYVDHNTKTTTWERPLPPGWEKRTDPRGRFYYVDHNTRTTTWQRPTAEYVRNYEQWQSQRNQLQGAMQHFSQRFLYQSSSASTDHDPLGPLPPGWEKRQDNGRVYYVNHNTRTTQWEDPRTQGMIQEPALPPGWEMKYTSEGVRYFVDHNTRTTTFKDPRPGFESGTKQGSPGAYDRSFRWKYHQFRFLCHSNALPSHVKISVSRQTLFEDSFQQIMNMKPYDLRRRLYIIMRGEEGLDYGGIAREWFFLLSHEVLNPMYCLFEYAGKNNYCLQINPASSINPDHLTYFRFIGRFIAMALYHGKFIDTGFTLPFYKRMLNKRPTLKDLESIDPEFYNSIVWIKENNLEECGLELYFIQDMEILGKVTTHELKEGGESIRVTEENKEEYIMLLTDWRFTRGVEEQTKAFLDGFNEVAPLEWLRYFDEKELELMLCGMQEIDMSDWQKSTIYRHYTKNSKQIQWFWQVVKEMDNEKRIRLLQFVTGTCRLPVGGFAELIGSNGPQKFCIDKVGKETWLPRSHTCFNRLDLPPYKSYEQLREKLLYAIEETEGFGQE

- binding result: binds
B1: GST-p73 (natural protein, UniProt O15350 1-636, looked up)
chain: MAQSTATSPDGGTTFEHLWSSLEPDSTYFDLPQSSRGNNEVVGGTDSSMDVFHLEGMTTSVMAQFNLLSSTMDQMSSRAASASPYTPEHAASVPTHSPYAQPSSTFDTMSPAPVIPSNTDYPGPHHFEVTFQQSSTAKSATWTYSPLLKKLYCQIAKTCPIQIKVSTPPPPGTAIRAMPVYKKAEHVTDVVKRCPNHELGRDFNEGQSAPASHLIRVEGNNLSQYVDDPVTGRQSVVVPYEPPQVGTEFTTILYNFMCNSSCVGGMNRRPILIIITLEMRDGQVLGRRSFEGRICACPGRDRKADEDHYREQQALNESSAKNGAASKRAFKQSPPAVPALGAGVKKRRHGDEDTYYLQVRGRENFEILMKLKESLELMELVPQPLVDSYRQQQQLLQRPSHLQPPSYGPVLSPMNKVHGGMNKLPSVNQLVGQPPPHSSAATPNLGPVGPGMLNNHGHAVPANGEMSSSHSAQSMVSGSHCTPPPPYHADPSLVSFLTGLGCPNCIEYFTSQGLQSIYHLQNLTIEDLGALKIPEQYRMTIWRGLQDLKQGHDYSTAQQLLRSSNAATISIGGSGELQRQRVMEAVHFRVRHTITIPNRGGPGGGPDEWADFGFDLPDCKARKQPIKEEFTEAEIH
notes: also called glutathione S-transferase (GST)–p73

- binding result: binds
B2: GST-ΔNp73 (natural protein, UniProt O15350-8 1-587, looked up)
chain: MLYVGDPARHLATAQFNLLSSTMDQMSSRAASASPYTPEHAASVPTHSPYAQPSSTFDTMSPAPVIPSNTDYPGPHHFEVTFQQSSTAKSATWTYSPLLKKLYCQIAKTCPIQIKVSTPPPPGTAIRAMPVYKKAEHVTDVVKRCPNHELGRDFNEGQSAPASHLIRVEGNNLSQYVDDPVTGRQSVVVPYEPPQVGTEFTTILYNFMCNSSCVGGMNRRPILIIITLEMRDGQVLGRRSFEGRICACPGRDRKADEDHYREQQALNESSAKNGAASKRAFKQSPPAVPALGAGVKKRRHGDEDTYYLQVRGRENFEILMKLKESLELMELVPQPLVDSYRQQQQLLQRPSHLQPPSYGPVLSPMNKVHGGMNKLPSVNQLVGQPPPHSSAATPNLGPVGPGMLNNHGHAVPANGEMSSSHSAQSMVSGSHCTPPPPYHADPSLVSFLTGLGCPNCIEYFTSQGLQSIYHLQNLTIEDLGALKIPEQYRMTIWRGLQDLKQGHDYSTAQQLLRSSNAATISIGGSGELQRQRVMEAVHFRVRHTITIPNRGGPGGGPDEWADFGFDLPDCKARKQPIKEEFTEAEIH
